B1: chimeric HIRMAb (chimeric monoclonal antibody against the human insulin receptor) (antibody, human IgG1, kappa)
heavy: not shown
light: DIQMTQSPSSLSASLGERVSLTCRASQDIGGNLYWLQQGPDGTIKRLIYATSSLDSGVPKRFSGSRSGSDYSLTISSLESEDFVDYYCLQYSSSPWTFGGGTKMEIKRTVAAPSVFIFPPSDEQLKSGTASVVCLLNNFYPREAKVQWKVDNALQSGNSQESVTEQDSKDSTYSLSSTLTLSKADYEKHKVYACEVTHQGLSSPVTKSFNRGEC
notes: MW 150 kDa; also called HIR Ab; chimeric HIR Ab
B2: HIRMAb-ASA fusion protein (HIR Ab fused at the carboxyl terminus of each heavy chain to mature human arylsulfatase A) (antibody, human IgG1, kappa)
heavy: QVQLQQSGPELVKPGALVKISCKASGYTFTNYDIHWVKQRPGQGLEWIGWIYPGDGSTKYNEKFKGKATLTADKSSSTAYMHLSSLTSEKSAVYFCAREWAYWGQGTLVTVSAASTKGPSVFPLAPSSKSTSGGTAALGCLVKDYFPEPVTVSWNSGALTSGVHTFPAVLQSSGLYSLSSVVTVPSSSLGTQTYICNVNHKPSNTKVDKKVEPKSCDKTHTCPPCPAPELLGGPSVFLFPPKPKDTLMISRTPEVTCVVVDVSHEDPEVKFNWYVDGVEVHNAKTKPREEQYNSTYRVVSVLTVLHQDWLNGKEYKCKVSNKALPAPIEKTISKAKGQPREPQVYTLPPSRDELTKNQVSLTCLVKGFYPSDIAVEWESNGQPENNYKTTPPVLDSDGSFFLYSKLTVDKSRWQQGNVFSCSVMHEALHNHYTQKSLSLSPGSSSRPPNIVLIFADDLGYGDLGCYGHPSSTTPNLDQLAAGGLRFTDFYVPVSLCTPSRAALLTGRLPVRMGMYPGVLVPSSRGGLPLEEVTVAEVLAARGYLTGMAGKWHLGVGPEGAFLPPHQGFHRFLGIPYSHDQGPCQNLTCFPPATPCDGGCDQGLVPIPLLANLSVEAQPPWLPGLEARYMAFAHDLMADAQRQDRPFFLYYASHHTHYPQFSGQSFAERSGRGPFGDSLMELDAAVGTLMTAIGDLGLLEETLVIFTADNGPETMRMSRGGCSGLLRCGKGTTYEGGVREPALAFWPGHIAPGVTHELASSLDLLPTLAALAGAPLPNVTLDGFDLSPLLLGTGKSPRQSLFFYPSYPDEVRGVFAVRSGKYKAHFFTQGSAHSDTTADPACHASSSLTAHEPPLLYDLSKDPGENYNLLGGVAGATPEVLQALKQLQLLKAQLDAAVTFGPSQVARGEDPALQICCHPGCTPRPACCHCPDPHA
light: B1 light
modifications: Cys-515 of SEQ ID NO 10 undergoes post-translational conversion to formylglycine (inferred by the filing from retained enzyme activity)
notes: Antibody-enzyme fusion made in CHO cells and purified on protein A. Hetero-tetramer with an estimated MW of 288 kDa; also called HIR Ab-ASA fusion protein; HIR Ab-ASA fusion antibody
B3: HIR Ab-GUSB fusion protein (human GUSB fused to the carboxyl terminus of the HIR Ab heavy chain) (antibody, human IgG1, kappa)
heavy: not shown
light: B1 light
notes: range 23-633; also called HIRMAb-GUSB fusion protein; pCD-HC-GUSB plus pCD-LC product

What was measured:
[1] = target: T1, human insulin receptor extracellular domain (HIR ECD) (human, UniProt P06213 28-956, limits assumed); experiment: ELISA, HIR ECD plated, detected with biotinylated anti-human IgG
T1 construct: extracellular domain; The ECD was plated on 96-well dishes for the ELISA

[2] = target: T1, human insulin receptor extracellular …; experiment: ELISA, HIR ECD plated on Nunc-Maxisorb wells, detected with biotinylated anti-human IgG
Description: (§1) The affinity of the fusion protein for the HIR extracellular domain (ECD) was determined with an ELISA. CHO cells permanently transfected with the HIR ECD were grown in serum free media (SFM), and the HIR ECD was purified with a wheat germ agglutinin affinity column, as previously described in Coloma et al. (2000) Pharm Res, 17:266-274. The HIR ECD was plated on Nunc-Maxisorb 96 well dishes and the binding of the HIR Ab, or the HIR Ab-ASA fusion protein, to the HIR ECD was detected with a biotinylated goat anti-human IgG (H+L) secondary antibody, followed by avidin and biotinylated peroxidase (Vector Labs, Burlingame, Calif.). […] The MW of the HIR Ab is 150 kDa, and the MW of the HIR Ab-ASA fusion protein is 288 kDa.

[3] = target: T1, human insulin receptor extracellular …; experiment: ELISA, HIR ECD plated; normalised for a MW of 150 kDa
Description: as §1

[4] = target: T1, human insulin receptor extracellular …; experiment: ELISA, HIR ECD plated (second experiment)
[5] = target: T1, human insulin receptor extracellular …; experiment: ELISA, HIR ECD plated; normalised for a MW of 288 kDa
Description: as §1

Row | Binder | EC50 [1] [nM] | EC50 [2] [mg/L] | EC50 [3] [nM] | EC50 [4] [nM] | EC50 [5] [nM]
1 | B1 | 0.77 | 0.035 | 0.23 | 0.25 | –
2 | B2 | – | 0.106 | – | – | 0.34
3 | B3 | 0.81 | – | – | – | –
